Drawing on patent publication EP4803885A1, “PROBE AND USE THEREOF IN IMAGING AND THERAPY” (priority 2023, dated 2025), this text covers fluorescence characteristics for one molecule.

This series in a line: Near-infrared imaging of DIII-EphB4-EBD after conjugation with dye. The settings on record: after conjugation with near-infrared fluorescent dye, different concentrations, compared with Dye@DIII. Format: physicochemical. From the text:
After induction, the supernatant of the BMMY induced expression culture was collected and sequentially filtered through 0.8 µm, 0.45 µm, and 0.22 µm membranes. The filtrate was then purified using an Albupure affinity column. The purified product was subjected to SDS-PAGE and near-infrared imaging for identification. As shown in Fig. 19 (left), the final eluate contained a highly purified product (indicated by the red dashed box).

B1: DIII-EphB4-EBD: fusion protein of albumin DIII and EphB4 ephrin-binding domain (SEQ ID NO: 14), tested after conjugation with near-infrared fluorescent dye (conjugate)
chain: VEEPQNLIKQNCELFEQLGEYKFQNALLVRYTKKVPQVSTPTLVEVSRNLGKVGSKCCKHPEAKRMPCAEDYLSVVLNQLCVLHEKTPVSDRVTKCCTESLVNRRPCFSALEVDETYVPKEFNAETFTFHADICTLSEKERQIKKQTALVELVKHKPKATKEQLKAVMDDFFVEKCCKADDKETCFAEEGKKLVSQLGLGGGGSGGGGSEETLLNTKLETADLKWVTFPQVDGQWEELSGLDEEQHSVRTYEVCDVQRAPGQAHWLRTGWVPRRGAVHVYATLRFTMLECLSLPRAGRSCKETFTVFYYESDADTATALTPAWMENPYIKVDTVAAEHLTRKRPGAEATGKVNVKTLRLGPLSKAGFYLAFQDQGACMALLSLHLFYKKCAQLTV
modifications: near-infrared fluorescent dye conjugated
Consider B1, for which the fluorescence characteristics entry is “fluorescence characteristics consistent with those of the original DIII”.
